Results from article PMC3820547 (2013).

B1: Replication Protein A (Q9V1Z1, Q9V1Y9, Q9V1Z0), His-tagged RPA complex (complex)
chain 1: MVNVKNRNILRYSKVVDMTVLTKDRIIEIIERKTGMSREEIEEEIRKIMEEDPYLSEQGAAALLAERLGIDLIEKEEVSLMRISELYPGMDPREVNVVGRVLKKYPPREYTRKDGSVGRVASLIIYDDSGRARVVLWDAKVSEYYNKIEVGDVIKVLDAQVKESLSGLPELHINFRARIILNPDDPRVEMIPPLEEVRVATYTRKKIKDIEAGDRFVEVRGTIAKVYRVLTYDACPECKKKVDYDEGLGVWICPEHGEVQPIKMTILDFGLDDGTGYIRVTLFGDDAEELLGVSPEEIAEKIKELEESGLTTKEAARKLAEDEFYNIIGREIVVRGNVIEDRFLGLILRASSWEDVDYRREIERIKEELEKLGVM
chain 2: MVIEMKKRMPATRLYIKDILEGYFVKSEGDFEPNYLITKYARKVYRAKIVGTVVREPLIAEDETYGKFQVDDGTGVIWVLGFRDDTKFAKLVRKGDLVQVIGKIAEWRDDKQILVEGVSKVHPNMWILHRYETLKEKIEHIKKAKIALEIYNQYGITAKSKVIAKNKGIEEELLEVIDELYGIMMEERSIEEPMEELLEEEIPEEKEENELLEKAKEDILNILRQKRTAISRKYILKKLGDKYDEETIDDAITELLAQGEIYEPETGYYKLL
chain 3: MEVQVRRRKPAVERKISEIREEDTRVSLIGRVIKVDKMDYMFWLDDGTGVAIIESESDLPKVGQVVRVIGRIIRNEEGIHIYAEVIQDFSDADLEALEEIRELERKLLPRLEGEIVW

What was measured:
Experiment in all cases: SPR; RPA bound to 32mer ssDNA
[1] = molecular target: B1
[2] = molecular target: B1
[3] = molecular target: T1, DNA Polymerase D (Q9V2F3, Q9V2F4), HIS-tagged complex (Pyrococcus abyssi, UniProt Q9V2F3 1-619; Q9V2F4 1-1455)
[4] = molecular target: T1, DNA Polymerase D (Q9V2F3, Q9V2F4), …; remark: listed apart in the source

Row | Kd [1] [µM] | koff [2] [s⁻¹] | Kd [3] [µM] | koff [4] [s⁻¹] | Binder
1 | 0.052 | 0.000454 | – | – | Primase small subunit P41 (Q9V292), HIS-tagged (natural protein) MLLREVTKEERKEFYSNEWNAKQIPDFILQNLDKREFGFDHTGEGPSDRKNSYTDVRDLEDYIKATAPYAVYSSVAFYEKPQEMEGWLGAELVFDIDAKDLPLRRCNHEPGKVCPICLNDAKEIARDTLIVLKEELGFEDVHVVYSGRGYHIRVMDGWALSLDSKSRERILSFISASEIEDHSEFRKMLLERRGWFVLNHGYPRVFRLRFGYFILRVKVEHLINFGIRKNIAKRILDNKETIYEEFVRKGILAAFPDGVGIESLAKLFALSTRFSKAYFDGRVTVDLKRILRLPSTLHSKVGLIAKYIGNNERDVMRFNPFKHAVPKFRRKEVKEEYKRFLEENF
2 | – | – | 0.051 | 0.000202 | B1
